± gives the uncertainty stated by the source.

This data set in a line: abundance fitness (aPCA) (normalised: wild type 0, dead -1); higher = more abundant; growth selection in yeast, the domain comes from the species named. The settings on record: Homo sapiens.
As for “Lipoamide acyltransferase component of branched-chain alpha-keto acid dehydrogenase complex, mitochondrial K202S, P11182”, the abundance fitness was -0.124 ± 0.049.
Under “Lipoamide acyltransferase component of branched-chain alpha-keto acid dehydrogenase complex, mitochondrial K202T, P11182” stands -0.211 ± 0.062; under “Lipoamide acyltransferase component of branched-chain alpha-keto acid dehydrogenase complex, mitochondrial K202V, P11182”, -0.105 ± 0.044.
Under “Lipoamide acyltransferase component of branched-chain alpha-keto acid dehydrogenase complex, mitochondrial K202W, P11182” stands -0.276 ± 0.056; under “Lipoamide acyltransferase component of branched-chain alpha-keto acid dehydrogenase complex, mitochondrial K211A, P11182”, 0.066 ± 0.043.
To “Lipoamide acyltransferase component of branched-chain alpha-keto acid dehydrogenase complex, mitochondrial K211C, P11182” belongs -0.056 ± 0.053.
With “Lipoamide acyltransferase component of branched-chain alpha-keto acid dehydrogenase complex, mitochondrial K211D, P11182”, the abundance fitness was -0.076 ± 0.053.
To “Lipoamide acyltransferase component of branched-chain alpha-keto acid dehydrogenase complex, mitochondrial K211E, P11182” belongs -0.045 ± 0.039.
Substance “Lipoamide acyltransferase component of branched-chain alpha-keto acid dehydrogenase complex, mitochondrial K211F, P11182” displayed an abundance fitness of -0.232 ± 0.065.
In turn, “Lipoamide acyltransferase component of branched-chain alpha-keto acid dehydrogenase complex, mitochondrial K211G, P11182” registered an abundance fitness of 0.007 ± 0.037.
Regarding “Lipoamide acyltransferase component of branched-chain alpha-keto acid dehydrogenase complex, mitochondrial K211H, P11182”, the abundance fitness is -0.041 ± 0.052.
Under “Lipoamide acyltransferase component of branched-chain alpha-keto acid dehydrogenase complex, mitochondrial K211I, P11182” stands -0.122 ± 0.061.
To “Lipoamide acyltransferase component of branched-chain alpha-keto acid dehydrogenase complex, mitochondrial K211L, P11182” belongs -0.115 ± 0.043; to “Lipoamide acyltransferase component of branched-chain alpha-keto acid dehydrogenase complex, mitochondrial K211M, P11182”, -0.073 ± 0.051.
Under “Lipoamide acyltransferase component of branched-chain alpha-keto acid dehydrogenase complex, mitochondrial K211N, P11182” stands -0.058 ± 0.092; under “Lipoamide acyltransferase component of branched-chain alpha-keto acid dehydrogenase complex, mitochondrial K211P, P11182”, -0.093 ± 0.048.
As to “Lipoamide acyltransferase component of branched-chain alpha-keto acid dehydrogenase complex, mitochondrial K211Q, P11182”, the abundance fitness is -0.024 ± 0.044.
“Lipoamide acyltransferase component of branched-chain alpha-keto acid dehydrogenase complex, mitochondrial K211R, P11182”: the abundance fitness came to 0.043 ± 0.037.

These data come from the Human Domainome abundance scans (Beltran et al. 2025).
